Biological target: panel of 118 tier 2,3 viruses
Assay: cell-based or functional assay

B1: N60-B1.1 (antibody, V domains shown)
VH: QLQLQESGPGLVKPSGTLSLTCSVSGGSMNGRNIYWAWIRQTPGKGLEWIGSVDVSDEDAGRTFYKWPIKSRASISADTSKNQFSLKLSSVTVADTGVYYCARETLYYVGNGYYYPLDVFYYNYYMDVWGKGTTVSVSSASTKG
VL: not shown
% of neutralized viruses: 40.2% | Median IC50 (ug/ml), neutralization: 0.37 µg/mL | average IC50, neutralization (TZM-bl assay): 0.44 µg/mL
